Experimental findings from publication PMC2928777, “Neuropeptide delivery to the brain: a von Willebrand factor signal peptide to direct neuropeptide secretion” (BMC Neuroscience, 2010) are described below.

This test has as its target T1, human MC4R (Homo sapiens, UniProt P32245).
T1 construct: expressed in transfected cells; host or cells: HEK 293T cells, transient transfection with polyethylenimine, co-transfected with CRE-LacZ
The test can be described thus: LacZ reporter gene assay (MC4R_CRE-LacZ transfected 293T cells). The conditions noted are these: for EC50: 10% of the volume added was supernatant of 293T cells transfected with the named construct, antagonism of MC4R (rightward shift), average of 4 trials, read-out: EC50 of NDP-MSH dose response curve in presence of supernatant. The format is cell-based. On the procedure:
Activation of MC4R in vitro results in an increase in cyclic adenosine monophosphate (cAMP)[27]. In our assay upregulation of cAMP increased LacZ expression through a cAMP responsive element.
Activation of the MC4R was determined using LacZ as a reporter gene. DNA was transfected into cells with polyethylenimine. Fifty nanograms of human MC4R and 10 μg of cAMP-responsive element (CRE)-LacZ were transfected into 293T cells on 10cm dishes. Another five 10cm dishes with 293T cells were transfected with 10 μg of respectively pAAV-GFP, pAAV-flAgRP, pAAV-VWF-AgRP83-132 , pAAV-VWF-αMSH1 and pAAV-VWF-αMSH4. One day after transfection the MC4R_CRE-LacZ cells were transferred to poly-L-lysine coated 96-wells plates. Three days after transfection supernatant of 10cm dishes was removed and used for LacZ reporter assay. […] In addition only forskolin was added to other wells as a positive control for CRE-LacZ transfection and the subsequent colometric reaction. The medium of another plate with MC4R_CRE-LacZ transfected cells was replaced with assay buffer containing serial dilutions of conditioned medium from cells transfected with αMSH1, αMSH4 or GFP. […] After 5-6 hour incubation at 37°C the assay medium was removed and replaced by 40 μl lysisbuffer (phosphate buffered saline (PBS) containing 0.1% Triton-X-100). The plates were stored at -20°C. After thawing of the plates, 80 μl of substrate (0.1 M phosphate buffer, pH7.4, containing 1.6 g/l o-nitrophenyl β-D-galactopyranoside (ONPG, Invitrogen, the Netherlands), 67.5 mM β-mercaptoethanol (Merck, Germany) and 1.5 mM magnesium chloride) was added to each well. Absorbance at 405 nm was measured in a Victor^2 microplate reader (PerkinElmer, Brussels, Belgium).
Data were analyzed with GraphPad Prism (GraphPad Software Inc., California). Competition curves were fitted from duplicate data points using sigmoidal dose response curve with variable slope.

T1 sequence (P32245 whole entry): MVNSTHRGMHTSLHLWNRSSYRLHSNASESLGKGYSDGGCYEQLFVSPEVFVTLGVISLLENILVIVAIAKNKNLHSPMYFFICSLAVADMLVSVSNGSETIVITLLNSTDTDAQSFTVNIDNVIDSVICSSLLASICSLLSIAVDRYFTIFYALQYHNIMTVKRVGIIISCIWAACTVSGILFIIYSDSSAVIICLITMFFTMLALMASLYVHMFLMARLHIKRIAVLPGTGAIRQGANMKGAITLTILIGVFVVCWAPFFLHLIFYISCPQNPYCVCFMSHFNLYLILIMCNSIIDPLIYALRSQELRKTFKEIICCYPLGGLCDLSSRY

“VWF-AgRP83-132: minigene product: VWF signal peptide, HA tag, furin site and AgRP83-132; tested as supernatant of transfected 293T cells (SPRRCVRLHESCLGQQVPCCDPCATCYCRFFNAFCYCRKLGTATNLCSRT; not fully specified; Secreted furin-released minigene product; VWF signal peptide, HA tag and RKRR furin site left out; The name 83-132 follows human numbering; it equals mouse precursor 82-131, since the printed primer e)”: the half-maximal effective concentration (EC50) was 0.5 nM.

B1: flAgRP: supernatant of 293T cells transfected with full length mouse Agouti-related protein construct with normal AgRP signal peptide (protein, UniProt P56473 1-131, looked up)
chain: MLTAMLLSCVLLLALPPTLGVQMGVAPLKGIRRPDQALFPEFPGLSLNGLKKTTADRAEEVLLQKAEALAEVLDPQNRESRSPRRCVRLHESCLGQQVPCCDPCATCYCRFFNAFCYCRKLGTATNLCSRT
modifications: full-length
notes: supernatant of 293T cells transfected with full length mouse Agouti-related protein construct with normal AgRP signal peptide
Regarding B1, the EC50 worked out at 1.4 nM. Besides, under “50% of the volume added was supernatant of transfected 293T cells”, the “Shift of NDP-MSH dose response curve in presence of supernatant” value was “shifted even further to the right”.
